The series deals with the molecule itself. Briefly: dimer bands on SDS-PAGE (Western blot with rho1D4 antibody, silver stain); immunoaffinity-purified receptors in 0.01% or 0.2% detergent; Novex 10% Bis-Tris gels, samples kept at room temperature 10 min, not boiled. In general terms: Immunoblotting shows a protein as a band on a membrane.

We go through one protein from article PMC7721705, “The G protein coupled receptor CXCR4 designed by the QTY code becomes more hydrophilic and retains cell signaling activity” (Scientific Reports, 2020).

B1: CXCR4^QTY29 with C-terminal GSSG linker and rho1D4 tag (receptor, UniProt P61073 1-352, looked up)
chain: MEGISIYTSDNYTEEMGSGDYDSMKEPCFREENANYNKTFLPTIYSIIYQTGTVGNGLVILVMGYQKKLRSMTDKYRLHLSTADLQFVTTLPYWATDATANWYFGNFLCKAVHVIYTVNLYSSVLILAFISLDRYLAIVHATNSQRPRKLLAEKVVYVGVWTPAQLLTTPDYTFANVSEADDRYICDRFYPNDLWVVVFQFQHIMVGLILPGIVILSCYCIIISKLSHSKGHQKRKALKTTTTLIQAFFACWQPYYTGISIDSYILLEIIKQGCEFENTVHKWISTTEAQAFYHCCTNPTQYAYLGAKFKTSAQHALTSVSRGSSLKILSKGKRGGHSSVSTESESSSFHSS
notes: CXCR4, UniProt P61073, with 29 QTY replacements of lipid-facing transmembrane residues; also called QTY variant; source: E. coli cell-free reaction mix (pIVex2.3) with Brij-35; captured from crude supernatant (SPR); not shown: rho1D4 tag (after a GSSG linker), C-terminal, kept
Consider B1, for which the binding result was “binds”.
